The chains are these.
B1: syntaxin 18 SNARE domain (aa 229–312) (domain or fragment)
chain: EEIQMFEQENQRLIGEMNSLFDEVRQIEGKVVEISRLQEIFTEKVLQQETEIDSIHQLVVGATENIKEGNEDIREAIKNNAGFR
B4: Use1 SNARE domain (aa 174–239) (domain or fragment)
chain: QRHQGLQEKLAEEMLGLARSLKTNTLAAQSVIKKDNQTLSHSLKMADQNLEKLKLESERLEQHAQK

Assay [1] deals with synaptobrevin 2 (aa 1–96) (Rattus norvegicus, UniProt P63045 1-96). Description: native gel or EMSA + SEC. (Mobility shift assays separate free from complexed probe on a gel.)
The target of assay [2] is B1. Description: native gel or EMSA + SEC.
Assay [3] deals with B4. As to the kind of experiment: native gel or EMSA + SEC.
In assay [4] the target is B1. As to the kind of experiment: native gel or EMSA.

Chain of synaptobrevin 2 (aa 1–96) (P63045 1-96): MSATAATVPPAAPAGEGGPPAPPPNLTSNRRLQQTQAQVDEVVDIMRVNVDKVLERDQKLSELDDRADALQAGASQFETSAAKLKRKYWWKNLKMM

On to B1, for which, in assay [1], the binding result was “binds”.

B2: Sec20 SNARE domain (aa 133–198) (domain or fragment)
chain: QTSSSITESLMGISRMMSQQVQQSEEAMQTLVSSSRTLLDANEEFKSMSGTIQLGRKLITKYNRRE
With B2, the binding result in assay [2] and in assay [3] was “binds” throughout.

B3: U_SNAP (Sec20, aa 133–198; Use1, aa 174–239), chimeric Qbc-SNARE with the SNAP-25 linker (other)
chain: QTSSSITESLMGISRMMSQQVQQSEEAMQTLVSSSRTLLDANEEFKSMSGTIQLGRKLITKYNRREGLSVSPSNKLKSSDAYKKAWGNNQDGVVASQPARVVDEREQMAISGGFIRRVTNDQRHQGLQEKLAEEMLGLARSLKTNTLAAQSVIKKDNQTLSHSLKMADQNLEKLKLESERLEQHAQK
On to B3, for which the binding result in assay [4] is recorded as “binds”.
Take B4: in assay [2], the binding result is “binds”.

For the origin of these results see article PMC11344281 (Protein Science : A Publication of the Protein Society, 2024).
